Test results as given in patent US20210388087A1 (Chugai, published 2021).
Where a chain is given by its changes, count along the chain named. One block for each binder: values may come before it.

Molecular target: T1, CD3 epsilon homodimer protein (UniProt P07766 23-126)
T1 construct: also called CD3 (CD3 epsilon)
Test: SPR, antibody over immobilised CD3e homodimer;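 also: SPR at 25 °C with CD3 epsilon homodimer amine-coupled to a CM4 sensor chip and antibody flowed over as analyte in HBS-EP+ running buffer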

T1 sequence (P07766 23-126): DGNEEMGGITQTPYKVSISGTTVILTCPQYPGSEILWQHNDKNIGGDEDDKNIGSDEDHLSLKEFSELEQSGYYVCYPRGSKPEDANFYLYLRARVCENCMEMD

B1: CE115HA000/GLS3000 N53S (antibody, IgG1, name in Kabat numbering, V domains shown)
VH: QVQLVESGGGVVQPGRSLRLSCAASGFTFSNAWMHWVRQAPGKGLEWVAQIKAKSNNYATYYAESVKGRFTISRDDSKNSLYLQMNSLKTEDTAVYYCRYVHYGAYYGVDAWGQGTTVTVSS
VL: DIVMTQSPLSLPVTPGEPASISCRSSQSLVHSNRNTYLHWYQQKPGQAPRLLIYKVSSRFSGVPDRFSGSGSGTDFTLKISRVEAEDVGVYYCGQGTQVPYTFGQGTKLEIK
notes: one-arm IgG1
KD ratio to GLS3000: 0.88

B2: CE115HA000/GLS3000 Q27D (antibody, IgG1, name in Kabat numbering, V domains shown)
VH: B1 VH
VL: B1 VL with Q27D, S58N
notes: one-arm IgG1
KD ratio to GLS3000: 0.89

B4: CE115HA000/GLS3000 P95E (antibody, IgG1, name in Kabat numbering, V domains shown)
VH: B1 VH
VL: B1 VL with S58N, P100E
notes: one-arm IgG1
KD ratio to GLS3000: 1.01

B5: CE115HA000/GLS3000 P95G (antibody, IgG1, name in Kabat numbering, V domains shown)
VH: B1 VH
VL: B1 VL with S58N, P100G
notes: one-arm IgG1
KD ratio to GLS3000: 1.94

B6: CE115HA000/GLS3000 P95S (antibody, IgG1, name in Kabat numbering, V domains shown)
VH: B1 VH
VL: B1 VL with S58N, P100S
notes: one-arm IgG1
KD ratio to GLS3000: 1.19

B7: CE115HA000/GLS3000 N53Y (antibody, IgG1, name in Kabat numbering, V domains shown)
VH: B1 VH
VL: B1 VL with S58Y
notes: one-arm IgG1
KD ratio to GLS3000: 0.99

B9: CE115HA000/GLS3000 N53W (antibody, IgG1, name in Kabat numbering, V domains shown)
VH: B1 VH
VL: B1 VL with S58W
notes: one-arm IgG1
KD ratio to GLS3000: 1.01

B10: CE115HA000/GLS3000 P95L (antibody, IgG1, name in Kabat numbering, V domains shown)
VH: B1 VH
VL: B1 VL with S58N, P100L
notes: one-arm IgG1
KD ratio to GLS3000: 11.7

B11: CE115HA000/GLS3000 N53T (antibody, IgG1, name in Kabat numbering, V domains shown)
VH: B1 VH
VL: B1 VL with S58T
notes: one-arm IgG1
KD ratio to GLS3000: 2.68

B13: CE115HA000/GLS3000 P95D (antibody, IgG1, name in Kabat numbering, V domains shown)
VH: B1 VH
VL: B1 VL with S58N, P100D
notes: one-arm IgG1
KD ratio to GLS3000: 2.37

B15: CE115HA000/GLS3000 N53V (antibody, IgG1, name in Kabat numbering, V domains shown)
VH: B1 VH
VL: B1 VL with S58V
notes: one-arm IgG1
KD ratio to GLS3000: 2.14

B17: CE115HA000/GLS3000 P95A (antibody, IgG1, name in Kabat numbering, V domains shown)
VH: B1 VH
VL: B1 VL with S58N, P100A
notes: one-arm IgG1
KD ratio to GLS3000: 0.87

Continued, values first:

KD ratio to GLS3000: 2.16
B3: CE115HA000/GLS3000 Q27P (antibody, IgG1, name in Kabat numbering, V domains shown)
VH: B1 VH
VL: B1 VL with Q27P, S58N
notes: one-arm IgG1

KD ratio to GLS3000: 0.86
B8: CE115HA000/GLS3000 Q27L (antibody, IgG1, name in Kabat numbering, V domains shown)
VH: B1 VH
VL: B1 VL with Q27L, S58N
notes: one-arm IgG1

KD ratio to GLS3000: 0.89
B12: CE115HA000/GLS3000 Q90A (antibody, IgG1, name in Kabat numbering, V domains shown)
VH: B1 VH
VL: B1 VL with S58N, Q95A
notes: one-arm IgG1

KD ratio to GLS3000: 0.99
B14: CE115HA000/GLS3000 Q27E (antibody, IgG1, name in Kabat numbering, V domains shown)
VH: B1 VH
VL: B1 VL with Q27E, S58N
notes: one-arm IgG1

KD ratio to GLS3000: 1.06
B16: CE115HA000/GLS3000 Q27R (antibody, IgG1, name in Kabat numbering, V domains shown)
VH: B1 VH
VL: B1 VL with Q27R, S58N
notes: one-arm IgG1

KD ratio to GLS3000: 11.1
B18: CE115HA000/GLS3000 Q90D (antibody, IgG1, name in Kabat numbering, V domains shown)
VH: B1 VH
VL: B1 VL with S58N, Q95D
notes: one-arm IgG1
